Source: patent US20050182242A1, “Global analysis of protein activities using proteome chips” (priority 2001, published 2005)

How the values were obtained:
[1] = system: phosphatidylcholine (PC) liposomes; assay: Yeast proteome chip probed with PC liposomes; settings: liposome binding signal on yeast proteome chip, Cy3-streptavidin detection
Source text: (§1) To identify PI-binding proteins in yeast, liposomes were used as probes because the liposome provides the most relevant physiological condition to assay the interactors. Six types of liposomes were used. Each contains phosphatidylcholine (“PC”) with 1% (w/w) N-(biotinoyl)-1,2-dihexadecanoyl-sn-glycero-3-phosphoethanolamine, triethylammonium salt (biotin DHPE). The biotinylated lipid serves as a label that can be detected by Cy3-streptavidin (21). In addition to PC, the five other liposomes contain either 5% (w/w) PI(3)P, PI(4)P, PI(3,4)P2, PI(4,5)P2, or PI(3,4,5)P3 (FIG. 3A).
(§2) The protein-liposome interaction was assayed as follows. Appropriate amounts of each lipid in chloroform were mixed and dried under nitrogen. The lipid mixture was resuspended in TBS buffer by vortexing. The liposomes were created by sonication. Blocked proteome chips were washed three to five times in PBS buffer, and the extra liquid on the glass surface was removed by tapping the slides vertically on a KIMWIPE™. 200 μl of liposome solution was added to the proteome chip and immediately covered by a hydrophobic plastic cover slip (GRACE BIO-LAB™, USA). After trapped air bubbles were removed, the chip was incubated in a humidity chamber at RT for one hour. To remove the cover slip, the chip was immersed into large volume of PBS buffer (50 ml), so that the slip would float away. The chip was then moved to a second PBS bath (>50 ml) and washed 3×5 min with shaking at RT. After removing extra liquid on the surface of the chip, about 100 μl of Cy3 or Cy5 conjugated streptavidin (PIERCE™, USA; 1:2000 to 1:4000 dilution) was added to the surface and covered by a hydrophobic plastic cover slip (GRACE BIO-LABS™, USA). The chip was incubated for greater than 30 min in the dark at RT. The chip was then washed as described above. To completely remove the liquid on the chip, the chip was spun to dryness at 1500-2000 rpm for 5-10 min at RT.
(§3) • 1. S. Fields, Y. Kohara, D. J. Lockhart, Proc. Natl. Acad. Sci. 96, 8825 (1999); A. Goffeau et al., Science 274, 563 (1996). • 2 P. Ross-Macdonald et al., Nature 402, 413 (1999); J. L., DeRisi, V. R. Iyer, P. O. Brown, Science 278, 680 (1997); E. A. Winzeler et al., Science 285, 901 (1999). P. Uetz et al., Nature 403, 623 (2000); T. Ito et al., Proc. Natl. Acad. Sci. USA. 97, 1143 (2000) • 3 H. Zhu, M. Snyder, Curr. Opin. Chem. Biol. 5, 40 (2001). • 4 M. R. Martzen et al., Science 286, 1153 (1999). • 5 H. Zhu et al., Nat. Genet. 26, 283 (2000). • 6 G. MacBeath, S. L. Schreiber, Science 289, 1760 (2000). • 7 A. Caveman, J. Cell Sci. 113, 3543 (2000). • 8 P. Arenkov et al., Anal. Biochem 278, 123 (2000). • 9 D. A. Mitchell, T. K. Marshall, R. J. Deschenes, Yeast 9, 715 (1993). The expression vector pEGH was created by inserting an RGS-HisX6 epitope tag between the GST gene and the polycloning site of pEG(KG). The yeast ORFs were cloned using the strategy described previously (5), except every step was done in a 96-well format. Plasmid DNAs confirmed by DNA sequencing were reintroduced into both yeast (Y258) and E. coli (DH5a). […] 0.1 mM calcium was present in buffers in all subsequent steps. The chip was washed three times with PBS at RT. Cy3-conjugated streptavidin (Jackson IR, USA) (1:5000 dilution) was added to the chip and incubated for 30 min at RT. After extensive washing, the chip was spun dry and scanned using a microarray scanner; the data was subsequently acquired with the GENEPIX™ array densitometry software (Axon, USA). • 12 S. S. Hook, A. R. Means, Annu. Rev. […]

PI(3,4)P2 liposomes = assay: Yeast proteome chip probed with PI(3,4)P2 liposomes; settings: liposome binding signal on yeast proteome chip, Cy3-streptavidin detection
Source text: as §1, §2
(§4) • 1. S. Fields, Y. Kohara, D. J. Lockhart, Proc. Natl. Acad. Sci. 96, 8825 (1999); A. Goffeau et al., Science 274, 563 (1996). • 2 P. Ross-Macdonald et al., Nature 402, 413 (1999); J. L., DeRisi, V. R. Iyer, P. O. Brown, Science 278, 680 (1997); E. A. Winzeler et al., Science 285, 901 (1999). P. Uetz et al., Nature 403, 623 (2000); T. Ito et al., Proc. Natl. Acad. Sci. USA. 97, 1143 (2000) • 3 H. Zhu, M. Snyder, Curr. Opin. Chem. Biol. 5, 40 (2001). • 4 M. R. Martzen et al., Science 286, 1153 (1999). • 5 H. Zhu et al., Nat. Genet. 26, 283 (2000). • 6 G. MacBeath, S. L. Schreiber, Science 289, 1760 (2000). • 7 A. Caveman, J. Cell Sci. 113, 3543 (2000). • 8 P. Arenkov et al., Anal. Biochem 278, 123 (2000). • 9 D. A. Mitchell, T. K. Marshall, R. J. Deschenes, Yeast 9, 715 (1993). The expression vector pEGH was created by inserting an RGS-HisX6 epitope tag between the GST gene and the polycloning site of pEG(KG). The yeast ORFs were cloned using the strategy described previously (5), except every step was done in a 96-well format. Plasmid DNAs confirmed by DNA sequencing were reintroduced into both yeast (Y258) and E. coli (DH5a). […] 0.1 mM calcium was present in buffers in all subsequent steps. The chip was washed three times with PBS at RT. Cy3-conjugated streptavidin (Jackson IR, USA) (1:5000 dilution) was added to the chip and incubated for 30 min at RT. After extensive washing, the chip was spun dry and scanned using a microarray scanner; the data was subsequently acquired with the GENEPIX™ array densitometry software (Axon, USA). • 12 S. S. Hook, A. R. Means, Annu. Rev. Pharmacol. Toxicol.41, 471 (2001). • 13 M. S. Cyert, R. Kunisawa, D. Kaim, J. Thorner, Proc. Natl. Acad. Sci. USA 88, 7376 (1991). • 14 D. A. Stirling, K. A. Welch, M. J. Stark, EMBO J. 13, 4329 (1994). • 15 F. Bohl, Kruse, EMBO J. 19, 5514 (2000); E. Bertrand et al., Mol. Cell 2, 437 (1998). • 16 D. C. Winter, E. Y. Choe, R. Li, Proc. Nat. Acad Sci. USA 96, 7288 (1999). • 17 C.

PI(4,5)P2 liposomes = assay: Yeast proteome chip probed with PI(4,5)P2 liposomes; settings: liposome binding signal on yeast proteome chip, Cy3-streptavidin detection
Source text: as §1, §2, §4

PI(4)P liposomes = assay: Yeast proteome chip probed with PI(4)P liposomes; settings: liposome binding signal on yeast proteome chip, Cy3-streptavidin detection
Source text: as §1, §2, §3

[2] = system: phospholipids (phosphatidylinositols vs phosphatidylcholine); assay: Proteome chip lipid-binding screen, overall analysis of six liposomes (PI/PC specificity); settings: phospholipid liposome probes
Source text: FIGS. 4A-4D. Analysis of the phosphatidylinositol-binding proteins. To determine the phosphatidylinositol (“PI”)-binding specificity of 150 positive proteins, their binding signals were normalized against the corresponding binding signals of phosphatidylcholine (“PC”). Based on the ratios (“PI/PC”), the proteins were grouped into four categories: (A) 30 strong and specific, (B) 43 strong and nonspecific, (C) 19 weak and specific, and (D) 58 weak and nonspecific phosphatidylinositol-binding proteins. The intensity represents the PI/PC signal ratio as shown by the scale in the figure. The column, labeled “10^n” to the right of the PI/PC binding ratios indicates the maximum binding signal intensity (open boxes) and its confidence interval (solid horizontal lines); the numbers indicate the log of the values. Boxes in the three columns to the right of the confidence interval column indicate membrane-associated proteins (“Membrane”), kinases (“Kinase”), and uncharacterized ORFs (“Unknown”), respectively.
To identify PI-binding proteins in yeast, liposomes were used as probes because the liposome provides the most relevant physiological condition to assay the interactors. Six types of liposomes were used. […] The biotinylated lipid serves as a label that can be detected by Cy3-streptavidin (21). […]

Which PC [1] does the source give for “RIM15: yeast protein kinase, regulator of glucose metabolism, GST-HisX6 fusion” here?
The PC was 244.76.

And the “PI(3, 4)P2” value (PI(3,4)P2 liposomes)?
The value was 4941.00.

And the “PI(4, 5)P2” value (PI(4,5)P2 liposomes)?
The value was 687.19.

What about the “PI(4)P” value (PI(4)P liposomes) of the same substance?
Its value is 2349.00.

And the “identified as lipid-binding interactor” value [2]?
Its value is “identified”.
